Test results published in the Human Domainome abundance scans (Beltran et al. 2025).

B1: POU domain, class 3, transcription factor 2, residues 262 to 338; numbered along this chain, P20265 (parent)
chain: EDTPTSDDLEQFAKQFKQRRIKLGFTQADVGLALGTLYGNVFSQTTICRFEALQLSFKNMCKLKPLLNKWLEEADSS

Variants of: B1
Assay: abundance fitness (aPCA) (normalised: wild type 0, dead -1); higher = more abundant; growth selection in yeast, the domain comes from the species named
Conditions: Homo sapiens

Abundance fitness: each site, then its substitutions
F16: E -0.618, P -0.733, G -0.818, Q -0.647, W -0.595, C -0.765, N -0.704, T -0.677, R -0.69, M -0.606, A -0.656, L -0.477, Y -0.767, S -0.802, H -0.91, D -0.854, K -0.633, I -0.753, V -0.671
E10: N -0.204, V 0.038, A 0.006, G -0.223, H 0.093, D -0.259, L 0.128, T -0.103, S -0.028, I -0.086, K 0.124, Y 0.054, P -0.189, C -0.01, M 0.008
Q15: A -0.124, S 0.013, N 0.063, T -0.038, R -0.035, H 0.042, M 0.051, D -0.008, F -0.187, W -0.033, K -0.003, G -0.141, I -0.068, E 0.018, P -1.08, C -0.147, L -0.067, Y 0.092
A13: K -0.606, Y -0.845, C -0.156, V -0.044, P -0.731, D -0.865, W -0.913, N -1.07, E -0.645, T -0.255, I -0.12, M -0.259, S -0.274, H -0.544, L -0.759, Q -0.73, G -0.605, F -0.84
L23: P -0.887, A -0.188, M 0.048, R -0.239, G -0.398, Y -0.139, K -0.332, E -0.578, N -0.254, Q -0.31, C -0.313, I -0.565, D -0.733, T -0.486, S -0.345
Q18: C -0.157, S -0.018, V -0.145, Y -0.295, M -0.089, G -0.273, H -0.193, N -0.292, T -0.029, L -0.13, I -0.223, R -0.077, D -0.068, P -1.21, K 0.024
D8: W -0.418, T -0.093, K -0.074, L -0.172, M -0.056, R -0.234, P -0.34, H -0.052, F -0.186, N 0.047, Q 0.055, Y -0.41, I -0.423, S 0.034, V -0.153, G -0.043
F25: K -0.072, R -0.321, W -0.149, Y 0.041, P -0.837, D -0.749, C -0.192, L -0.08, H -0.266, I -0.096, V -0.216, S -0.513, Q -0.431, N -0.709, A -0.183, E -0.773, T -0.632, M -0.107, G -0.983
Q27: T 0.04, N -0.419, I -0.222, K -0.132, C 0.045, A -0.071, H 0.02, P -0.028, R -0.201, Y 0.084, V -0.115, E -0.004, S -0.125, L -0.167, D -0.356
F12: R -0.401, A -0.283, Y -0.023, D -0.561, M -0.223, S -0.614, V -0.442, W -0.27, T -0.359, I -0.66, C -0.555, G -0.582, L -0.776, Q -0.828
I21: S -0.337, H -0.267, D -0.567
